Source: patent publication US20230348614A1 (VISTERRA, published 2023)
Numbering of substitutions follows the chain as printed.

Experiments:
G169A = molecular target: T1, G169A (Homo sapiens, UniProt P18827); assay: alanine scan: flow cytometry on HEK-293T cells expressing the mutant clone, 4320 Fab 0.50 ug/mL, normalised to WT CD138; Range %WT Binding 2; Normalized 4320 vs. BB4 44.4
T1 construct: clone of the alanine scanning library on HEK-293T cells; m17 with one substitution; also called CD138 G169A
T1 sequence (CD138 (SDC1), full length, point mutant, looked up): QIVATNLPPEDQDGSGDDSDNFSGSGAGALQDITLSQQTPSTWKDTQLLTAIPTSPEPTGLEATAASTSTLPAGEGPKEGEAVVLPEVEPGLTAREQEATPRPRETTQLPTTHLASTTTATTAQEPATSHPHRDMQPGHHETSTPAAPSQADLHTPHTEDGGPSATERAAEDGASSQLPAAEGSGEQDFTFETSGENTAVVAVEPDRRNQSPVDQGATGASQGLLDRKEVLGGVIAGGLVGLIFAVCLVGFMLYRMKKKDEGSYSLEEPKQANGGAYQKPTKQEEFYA
Description: (§1) Serial dilutions of each MAb were tested for immunoreactivity against cells expressing target protein (WT) or vector alone. Validation of target expression and optimization of detection and binding of anti-CD138 antibodies both by flow cytometry was completed in replicate (N=4). The optimal screening concentration for each MAb was determined based on the raw signal values and signal-to-background calculations specifically optimized for each test article. Optimized parameters included the use of 10% goat serum as blocking reagent. Primary antibody staining was for 60 minutes at 25° C. Wash buffer include phosphate buffered saline (divalent metal ion free), pH 7.4. […] Secondary antibodies were diluted 1:400 and incubated for 30 minutes at 25° C.
(§2) Library screens of very-high-affinity mAbs can fail to yield critical residues for antibody binding due to deficiencies of such an assay to detect and differentiate critical vs. less critical binding based on affinity and quantification of cell binding. One common approach in the literature is the use of monovalent antibody derived fragments such as Fab usually weakens binding sufficiently to allow identification of critical residues for binding. […] Binding of each test Ab to each mutant clone in the alanine scanning library was determined, in duplicate, and likewise evaluated by flow cytometry.

L107A = molecular target: T2, L107A (Homo sapiens, UniProt P18827); assay: alanine scan: flow cytometry on HEK-293T cells expressing the mutant clone, 4320 Fab 0.50 ug/mL, normalised to WT CD138; Range %WT Binding 13; Normalized 4320 vs. BB4 16.8
T2 construct: clone of the alanine scanning library on HEK-293T cells; m17 with one substitution; also called CD138 L107A
T2 sequence (CD138 (SDC1), full length, point mutant, looked up): T1 sequence (CD138 (SDC1), full length, point mutant, looked up) with L85A, A147G
Description: as §1, §2

Mean %WT Binding (G169A): 13.2 %WT | Mean %WT Binding (L107A): 18.2 %WT
B1: Fab fragment of mAb 4320 (Fab, V domains shown)
VH: QVQLVQSGAEVKKPGASVKVSCKASGYSFSSYYMHWVRQAPGQGLEWMGTIHPSDSTTNYNQKFQGRVTMTVDTSTRTAYMELSSLRSEDTAVYYCANFVYWGQGTTVTVSS
VL: DIVMTQTPLSLSVTPGQPASISCKSSKSLLYKDGKTYLNWFLQKPGQSPQLLIYVVSTRASGVPDRFSGSGSGTDFTLKISRVEAEDVGVYYCQQLVEYPYTFGQGTKLEIKR
modifications: N-terminal Q1 observed as pyroglutamic acid (PCA) in the 138-2-5 complex
notes: In the crystal structures heavy chain residues 1-213 were traced; also called Fab4320
